Experimental data taken from PMC10297700.

Molecular target: Rsc3ΔIDR (Saccharomyces cerevisiae, UniProt Q06639 1-885, del197-303)
Assay: EMSA

B1: ACC1_TIM23 probe (RSC3 consensus oligonucleotide) (dsDNA)
DNA 1: ACGCGCGCGCGGCCGGGCCA
DNA 2: TGGCCCGGCCGCGCGCGCGT
B1: binds.
